# Experimental data published in IntAct's records for PubMed 31515488.
# B1: AKT-interacting protein (Homo sapiens), Q9H8T0 (parent)
# chain: MNPFWSMSTSSVRKRSEGEEKTLTGDVKTSPPRTAPKKQLPSIPKNALPITKPTSPAPAAQSTNGTHASYGPFYLEYSLLAEFTLVVKQKLPGVYVQPSYRSALMWFGVIFIRHGLYQDGVFKFTVYIPDNYPDGDCPRLVFDIPVFHPLVDPTSGELDVKRAFAKWRRNHNHIWQVLMYARRVFYKIDTASPLNPEAAVLYEKDIQLFKSKVVDSVKVCTARLFDQPKIEDPYAISFSPWNPSVHDEAREKMLTQKKPEEQHNKSVHVAGLSWVKPGSVQPFSKEEKTVAT
# partner: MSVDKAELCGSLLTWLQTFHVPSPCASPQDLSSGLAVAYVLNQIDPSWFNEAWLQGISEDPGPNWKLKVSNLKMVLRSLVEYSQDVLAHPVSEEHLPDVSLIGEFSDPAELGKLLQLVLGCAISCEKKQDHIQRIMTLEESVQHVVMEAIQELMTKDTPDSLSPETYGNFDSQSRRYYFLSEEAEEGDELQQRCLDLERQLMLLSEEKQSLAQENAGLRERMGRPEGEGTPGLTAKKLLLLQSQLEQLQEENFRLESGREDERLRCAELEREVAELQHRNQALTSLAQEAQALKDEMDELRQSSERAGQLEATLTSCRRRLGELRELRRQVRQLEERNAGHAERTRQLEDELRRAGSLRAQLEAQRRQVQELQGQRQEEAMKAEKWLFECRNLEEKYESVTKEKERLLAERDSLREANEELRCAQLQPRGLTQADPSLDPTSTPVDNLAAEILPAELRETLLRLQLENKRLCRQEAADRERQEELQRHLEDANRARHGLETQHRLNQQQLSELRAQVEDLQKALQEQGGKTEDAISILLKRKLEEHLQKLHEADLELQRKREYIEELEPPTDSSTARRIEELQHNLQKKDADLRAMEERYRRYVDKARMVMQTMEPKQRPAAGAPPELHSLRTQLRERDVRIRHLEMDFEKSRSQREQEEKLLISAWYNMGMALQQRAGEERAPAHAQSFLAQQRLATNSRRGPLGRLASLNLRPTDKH
# B2: Zinc finger protein Aiolos (Homo sapiens), Q9UKT9 (parent)
# chain: MEDIQTNAELKSTQEQSVPAESAAVLNDYSLTKSHEMENVDSGEGPANEDEDIGDDSMKVKDEYSERDENVLKSEPMGNAEEPEIPYSYSREYNEYENIKLERHVVSFDSSRPTSGKMNCDVCGLSCISFNVLMVHKRSHTGERPFQCNQCGASFTQKGNLLRHIKLHTGEKPFKCHLCNYACQRRDALTGHLRTHSVEKPYKCEFCGRSYKQRSSLEEHKERCRTFLQSTDPGDTASAEARHIKAEMGSERALVLDRLASNVAKRKSSMPQKFIGEKRHCFDVNYNSSYMYEKESELIQTRMMDQAINNAISYLGAEALRPLVQTPPAPTSEMVPVISSMYPIALTRAEMSNGAPQELEKKSIHLPEKSVPSERGLSPNNSGHDSTDTDSNHEERQNHIYQQNHMVLSRARNGMPLLKEVPRSYELLKPPPICPRDSVKVINKEGEVMDVYRCDHCRVLFLDYVMFTIHMGCHGFRDPFECNMCGYRSHDRYEFSSHIARGEHRALLK
# partner: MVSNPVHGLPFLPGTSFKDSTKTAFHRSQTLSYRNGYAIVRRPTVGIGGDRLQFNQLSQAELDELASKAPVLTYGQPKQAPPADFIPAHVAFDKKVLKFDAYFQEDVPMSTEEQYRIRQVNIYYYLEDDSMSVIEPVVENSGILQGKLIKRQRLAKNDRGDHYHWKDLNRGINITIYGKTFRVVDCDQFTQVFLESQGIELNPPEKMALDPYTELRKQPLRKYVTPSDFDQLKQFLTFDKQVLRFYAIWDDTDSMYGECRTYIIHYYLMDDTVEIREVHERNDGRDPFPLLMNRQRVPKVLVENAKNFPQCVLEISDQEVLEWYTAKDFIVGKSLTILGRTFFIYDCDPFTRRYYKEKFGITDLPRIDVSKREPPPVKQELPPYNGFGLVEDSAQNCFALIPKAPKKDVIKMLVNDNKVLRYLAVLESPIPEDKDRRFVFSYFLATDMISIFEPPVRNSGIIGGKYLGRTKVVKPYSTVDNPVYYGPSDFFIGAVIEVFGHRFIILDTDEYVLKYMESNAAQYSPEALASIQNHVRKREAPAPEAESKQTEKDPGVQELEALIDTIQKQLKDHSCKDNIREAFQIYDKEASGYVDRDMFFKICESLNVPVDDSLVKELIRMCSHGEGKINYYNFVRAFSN
# B3: Notch homolog 2 N-terminal-like protein A (Homo sapiens), Q7Z3S9 (parent)
# chain: MCVTYHNGTGYCKCPEGFLGEYCQHRDPCEKNRCQNGGTCVAQAMLGKATCRCASGFTGEDCQYSTSHPCFVSRPCLNGGTCHMLSRDTYECTCQVGFTGKECQWTDACLSHPCANGSTCTTVANQFSCKCLTGFTGQKCETDVNECDIPGHCQHGGTCLNLPGSYQCQCLQGFTGQYCDSLYVPCAPSPCVNGGTCRQTGDFTFECNCLPETVRRGTELWERDREVWNGKEHDEN
# partner: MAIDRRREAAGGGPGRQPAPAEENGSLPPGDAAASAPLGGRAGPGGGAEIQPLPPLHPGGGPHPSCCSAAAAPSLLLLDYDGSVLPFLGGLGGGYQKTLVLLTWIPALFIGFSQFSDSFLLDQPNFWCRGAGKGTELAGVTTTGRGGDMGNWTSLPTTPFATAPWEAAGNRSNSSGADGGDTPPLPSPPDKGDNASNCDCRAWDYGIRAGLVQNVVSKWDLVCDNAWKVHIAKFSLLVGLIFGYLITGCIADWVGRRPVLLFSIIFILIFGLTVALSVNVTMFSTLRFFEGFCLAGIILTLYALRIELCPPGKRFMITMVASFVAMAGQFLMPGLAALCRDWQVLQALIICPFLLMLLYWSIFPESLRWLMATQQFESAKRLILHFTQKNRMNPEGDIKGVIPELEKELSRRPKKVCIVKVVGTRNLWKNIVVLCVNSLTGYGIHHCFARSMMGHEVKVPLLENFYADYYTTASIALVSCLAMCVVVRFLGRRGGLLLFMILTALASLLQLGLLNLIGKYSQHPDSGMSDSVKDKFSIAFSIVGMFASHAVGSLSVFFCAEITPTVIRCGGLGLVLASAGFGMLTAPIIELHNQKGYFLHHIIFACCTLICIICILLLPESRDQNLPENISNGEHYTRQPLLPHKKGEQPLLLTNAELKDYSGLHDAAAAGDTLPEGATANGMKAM
# B4: Rab-like protein 2A (Homo sapiens), Q9UBK7 (parent)
# chain: MAEDKTKPSELDQGKYDADDNVKIICLGDSAVGKSKLMERFLMDGFQPQQLSTYALTLYKHTATVDGKTILVDFWDTAGQERFQSMHASYYHKAHACIMVFDIQRKVTYRNLSTWYTELREFRPEIPCIVVANKIDDINVTQKSFNFAKKFSLPLYFVSAADGTNVVKLFNDAIRLAVSYKQNSQDFMDEIFQELENFSLEQEEEDVPDQEQSSSIETPSEEVASPHS
# partner: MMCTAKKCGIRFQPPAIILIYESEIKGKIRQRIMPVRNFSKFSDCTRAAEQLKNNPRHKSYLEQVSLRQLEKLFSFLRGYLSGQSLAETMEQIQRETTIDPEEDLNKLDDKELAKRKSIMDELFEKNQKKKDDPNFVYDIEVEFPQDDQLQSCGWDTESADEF
# B5: PDCD10 and GCKIII kinases-associated protein 1 (Homo sapiens), Q8IY42 (parent)
# chain: MGCRCCKIIQSYLFDPVQVPSPGYVNEVNSCKLDEDDTDKLKGKWSSEVLVQKNDPQRQGSKKTESSSRTADPWEPCWPHQGPLPQGDAGGEHHACGVNGIGPAATPQPTGNSSPTQDDRGSWASTANTVPPTQPFLEGGGTRKQDCVLLASEGTQVMRNGDSRAPSEAESFALEVQDHVFQIPAPDYLQHWGPAGDNVDHNEKDCVFKNHTEDESLEGIQPPVGEHGLNTPFSVRRSWDSLNEDVETEVLSICFNEKGPVHAMPVVDSGNRQEDTHGSDGDGDGEIVDEDAAVAEALAALEAATAGEDLDETD
# Variants of: B1
# Conditions: with hook2_human HOOK2, Q96ED9
row,effect of a mutation on the interaction,Variant
1,with no effect,R33Q

# Variants of: B2
# Conditions: with efhc1_human EFHC1, Q5JVL4
row,effect of a mutation on the interaction,Variant
1,with no effect,N119D
2,with no effect,A24V

# Variants of: B3
# Conditions: with SLC22A23, A1A5C7
row,effect of a mutation on the interaction,Variant
1,with no effect,A115T
2,with no effect,R74Q

# Variants of: B4
# Conditions: with cep19_human CEP19, Q96LK0
row,effect of a mutation on the interaction,Variant
1,with no effect,T53M
2,with no effect,A94T
3,with no effect,L119F
4,with no effect,R82Q

# Variants of: B5
# Conditions: with pdc10_human PDCD10, Q9BUL8
# pdc10_human PDCD10, Q9BUL8, sequence (Q9BUL8 whole entry): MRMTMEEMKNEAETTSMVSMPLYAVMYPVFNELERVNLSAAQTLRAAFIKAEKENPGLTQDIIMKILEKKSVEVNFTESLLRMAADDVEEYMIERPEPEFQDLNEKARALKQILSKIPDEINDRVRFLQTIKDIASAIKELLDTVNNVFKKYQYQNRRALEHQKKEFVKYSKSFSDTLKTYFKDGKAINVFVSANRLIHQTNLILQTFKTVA
row,effect of a mutation on the interaction,Variant
1,with no effect,A151T

# Variants of: B5
# Conditions: with eif3e_human EIF3E
row,effect of a mutation on the interaction,Variant
1,with no effect,A151T
